Data as given in patent US20200173986A1.

Target: endogenous SNAP25 in total cell lysate
Experiment: sandwich ELISA with total cell lysate, fusion supernatant

endogenous SNAP25 in total cell lysate, sequence (P60879 whole entry, the tested form may be a part): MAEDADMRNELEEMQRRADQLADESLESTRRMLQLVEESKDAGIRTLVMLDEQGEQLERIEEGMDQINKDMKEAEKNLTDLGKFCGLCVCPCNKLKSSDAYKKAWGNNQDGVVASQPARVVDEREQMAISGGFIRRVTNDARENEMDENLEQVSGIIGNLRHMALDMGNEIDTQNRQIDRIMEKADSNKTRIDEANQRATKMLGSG

B1: B4 IgG (antibody, V domains shown)
VH: EVKLVESGGGLVKPGGSLKLSCAASGFTFSNYGMSWVRQTPEKRLEWVATISSGGSYTYYPDSVKGRFTISRDNAKNTLYLQMSSLRSEDTAMYYCARHEGGGNPYFDYWGQGTTLTVSS
VL: DVLMTQTPLSLPVSLGDQASISCRSSQSLVHSNGNTYLHWYLQKPGQSPKLLIYKVSNRFSGVPDRFSGSGSGTDFTLKISRVEAEDLGVYFCSQNTLVPWTFGGGTKLEIK
Q: With B1 as the binder, how does the ELISA signal (A450) read?
A: 0.1
